# B1: PlGF-2 (ligand, UniProt P49763-3 19-170, looked up)
# chain: LPAVPPQQWALSAGNGSSEVEVVPFQEVWGRSYCRALERLVDVVSEYPSEVEHMFSPSCVSLLRCTGCCGDENLHCVPVETANVTMQLLKIRSGDRPSYVELTFSQHVRCECRPLREKMKPERRRPKGRGKRRREKQRPTDCHLCGDAVPRR
# notes: PlGF-2, isoform of placental growth factor; Dimer (~42 kDa by SEC-MALLS); also called placental growth factor
# Molecular target: the molecule itself
# Experiment: SEC-MALS; inhibitor and ligand mixed at molar ratios 5:1 to 1:5 (20 µM and 100 µM), 12 h at ambient temperature; free proteins injected separately; Superose 12 10/300 GL, 10 mM phosphate, 500 mM NaCl, pH 7.0, 0.3 mL/min
protein,measurement,value
B1,stoichiometry N,2

# Reference: paper PMC4930479 (Angiogenesis, 2016)
